Data as given in article PMC7261170 (Nucleic Acids Research, 2020).
Blank lines part the entries; values can stand above or below the binder they belong to.

Target: T1, CBP-CWC22-S (residues 100-665) (human, UniProt Q9HCG8 100-665)
T1 sequence (looked up): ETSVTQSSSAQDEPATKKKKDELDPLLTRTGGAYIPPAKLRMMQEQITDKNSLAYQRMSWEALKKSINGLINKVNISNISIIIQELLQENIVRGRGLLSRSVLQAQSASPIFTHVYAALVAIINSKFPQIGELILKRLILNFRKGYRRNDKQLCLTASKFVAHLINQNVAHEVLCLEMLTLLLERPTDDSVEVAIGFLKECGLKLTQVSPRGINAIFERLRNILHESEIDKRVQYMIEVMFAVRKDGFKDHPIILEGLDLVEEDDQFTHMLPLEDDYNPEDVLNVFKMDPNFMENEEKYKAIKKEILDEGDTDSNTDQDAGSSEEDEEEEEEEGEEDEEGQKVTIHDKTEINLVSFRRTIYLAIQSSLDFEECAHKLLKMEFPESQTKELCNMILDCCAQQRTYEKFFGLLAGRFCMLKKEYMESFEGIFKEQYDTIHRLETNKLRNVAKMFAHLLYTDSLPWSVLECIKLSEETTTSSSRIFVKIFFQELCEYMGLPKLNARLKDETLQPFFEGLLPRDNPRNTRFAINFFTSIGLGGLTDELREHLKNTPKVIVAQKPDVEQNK
Experiment: pull-down

binding result: binds
B1: PTS-CWC27 (1-472) (natural protein, human, UniProt Q6UX04 1-472, looked up)
chain: MSNIYIQEPPTNGKVLLKTTAGDIDIELWSKEAPKACRNFIQLCLEAYYDNTIFHRVVPGFIVQGGDPTGTGSGGESIYGAPFKDEFHSRLRFNRRGLVAMANAGSHDNGSQFFFTLGRADELNNKHTIFGKVTGDTVYNMLRLSEVDIDDDERPHNPHKIKSCEVLFNPFDDIIPREIKRLKKEKPEEEVKKLKPKGTKNFSLLSFGEEAEEEEEEVNRVSQSMKGKSKSSHDLLKDDPHLSSVPVVESEKGDAPDLVDDGEDESAEHDEYIDGDEKNLMRERIAKKLKKDTSANVKSAGEGEVEKKSVSRSEELRKEARQLKRELLAAKQKKVENAAKQAEKRSEEEEAPPDGAVAEYRREKQKYEALRKQQSKKGTSREDQTLALLNQFKSKLTQAIAETPENDIPETEVEDDEGWMSHVLQFEDKSRKVKDASMQDSDTFEIYDPRNPVNKRRREESKKLMREKKERR

binding result: binds
B2: CWC27-C (354-472) (domain or fragment, human, UniProt Q6UX04 354-472, looked up)
chain: DGAVAEYRREKQKYEALRKQQSKKGTSREDQTLALLNQFKSKLTQAIAETPENDIPETEVEDDEGWMSHVLQFEDKSRKVKDASMQDSDTFEIYDPRNPVNKRRREESKKLMREKKERR
